# T1: his-tagged recombinant human TIGIT ECD (human, UniProt Q495A1 22-138)
# T1 construct: also called h-TIGIT ECD (his-tagged); not shown: his tag
# T1 sequence: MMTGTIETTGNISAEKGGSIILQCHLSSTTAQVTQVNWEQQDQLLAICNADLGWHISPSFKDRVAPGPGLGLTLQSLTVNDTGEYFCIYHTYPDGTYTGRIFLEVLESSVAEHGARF
# T2: human TIGIT expressed on cells (stably transfected Jurkat cells) (human, UniProt Q495A1 22-244)
# T2 construct: Also used here for TIGIT on primary T cells in the MLR; also called h-TIGIT; T cell immunoreceptor with Ig and ITIM domains
# T2 sequence: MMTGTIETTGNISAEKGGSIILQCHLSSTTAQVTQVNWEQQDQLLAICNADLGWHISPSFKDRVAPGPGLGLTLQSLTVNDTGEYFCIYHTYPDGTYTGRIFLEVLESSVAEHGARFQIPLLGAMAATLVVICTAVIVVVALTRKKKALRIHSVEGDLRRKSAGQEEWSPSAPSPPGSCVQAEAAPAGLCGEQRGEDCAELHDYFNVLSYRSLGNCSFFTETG
# T3: recombinant mouse TIGIT (mouse, UniProt P86176 29-148, limits assumed)
# T3 sequence (looked up): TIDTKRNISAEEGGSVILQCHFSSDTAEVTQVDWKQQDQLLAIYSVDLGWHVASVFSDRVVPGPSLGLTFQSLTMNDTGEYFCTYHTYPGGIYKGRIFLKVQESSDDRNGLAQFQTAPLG
# T4: recombinant human TIGIT extracellular domain (ECD) (human, UniProt Q495A1 22-138)
# T4 construct: also called h-TIGIT ECD; recombinant human TIGIT ECD
# T4 sequence: T1 sequence
# B1: parental anti-PD1 monoclonal antibody (antibody, human IgG4 S228P, kappa, V domains shown)
# VH: QVQLVESGGGLVKPGGSLRLSCAASGFTFSNYGMSWIRQAPGKGLEWVSTISGGGSNIYYADSVKGRFTISRDNAKNSLYLQMNSLRAEDTAVYYCVSYYYGIDFWGQGTSVTVSS
# VL: DIQMTQSPSSLSASVGDRVTITCKASQDVTTAVAWYQQKPGKAPKLLIYWASTRHTGVPSRFSGSGSGTDFTLTISSLQPEDFATYYCQQHYTIPWTFGGGTKLEIKR
# notes: Antibody from WO 2018/052818 A1; also called aPD1; parental mAb anti-PD1
# B2: anti-TIGIT x anti-PD1 bispecific antibody, LCN version (bispecific antibody, human IgG4 S228P, kappa)
# heavy: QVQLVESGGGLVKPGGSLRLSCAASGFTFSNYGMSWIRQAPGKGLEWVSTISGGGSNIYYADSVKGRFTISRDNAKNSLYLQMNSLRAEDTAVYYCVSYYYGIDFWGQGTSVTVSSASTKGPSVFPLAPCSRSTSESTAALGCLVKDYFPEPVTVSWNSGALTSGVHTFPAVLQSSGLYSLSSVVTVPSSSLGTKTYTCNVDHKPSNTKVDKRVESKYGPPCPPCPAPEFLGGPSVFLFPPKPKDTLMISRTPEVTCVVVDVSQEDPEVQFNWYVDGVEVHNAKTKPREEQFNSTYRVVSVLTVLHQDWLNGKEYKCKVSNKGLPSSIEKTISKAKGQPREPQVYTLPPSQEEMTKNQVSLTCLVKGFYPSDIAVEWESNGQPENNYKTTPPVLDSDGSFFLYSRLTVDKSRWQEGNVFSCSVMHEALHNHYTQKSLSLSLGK
# light: QVQLVESGGGVVQPGRSLRLSCAASGGSFSSYPMGWFRQAPGKERESVAAISSDLRFTYYADSVKGRFTISRDNSKNTLYLQMNSLRAEDTAVYYCAARTSGVGYYSRAQWYDYWGQGTLVTVSSGSGGSGGSGGSGDIQMTQSPSSLSASVGDRVTITCKASQDVTTAVAWYQQKPGKAPKLLIYWASTRHTGVPSRFSGSGSGTDFTLTISSLQPEDFATYYCQQHYTIPWTFGGGTKLEIKRTVAAPSVFIFPPSDEQLKSGTASVVCLLNNFYPREAKVQWKVDNALQSGNSQESVTEQDSKDSTYSLSSTLTLSKADYEKHKVYACEVTHQGLSSPVTKSFNRGEC
# notes: VHH 2A3 fused to the N-terminus of the anti-PD1 light chain; also called aTIGITxaPD1-LCN
# B3: 2A3-Fc (bivalent 2A3 antibody) (Fc fusion)
# chain: QVQLVESGGGVVQPGRSLRLSCAASGGSFSSYPMGWFRQAPGKERESVAAISSDMRFTYYADSVKGRFTISRDNSKNTLYLQMNSLRAEDTAVYYCAARDSGVGYYSRAQWYDYWGQGTLVTVSS
# notes: also called parental 2A3-Fc; 2A3 clone; not shown: human IgG1 CH2 and CH3 domains
# Columns and labels:
# [1] = molecular target: T5, human PD1 expressed on transfected Jurkat cells (human, UniProt Q15116 25-288); test: PD1 WCB: whole cell binding, flow cytometry, h-PD1 Jurkat cells; mean
# T5 construct: whole, on cells; also called h-PD1; Programmed cell death protein 1
# T5 sequence (Q15116 25-288): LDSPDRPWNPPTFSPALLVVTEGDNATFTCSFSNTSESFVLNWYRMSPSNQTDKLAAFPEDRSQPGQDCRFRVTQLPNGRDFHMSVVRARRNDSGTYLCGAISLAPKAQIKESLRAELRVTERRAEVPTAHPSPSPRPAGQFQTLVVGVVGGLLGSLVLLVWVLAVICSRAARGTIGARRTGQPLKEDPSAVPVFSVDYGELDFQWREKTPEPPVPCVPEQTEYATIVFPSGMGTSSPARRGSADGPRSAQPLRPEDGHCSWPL
# Procedure: The binding affinities of the BsAbs to human PD1 were also determined by whole cell binding assays using human PD1 transfected Jurkat cells. Antibodies were incubated with h-PD1 transfected Jurkat cells, and binding was determined using a secondary anti-h-IgG antibody conjugated with AlexaFluor488, which was detected by flow cytometry.
# [2] = molecular target: T5, human PD1 expressed on transfected …; test: flow cytometry (whole cell binding) on h-PD1 transfected Jurkat cells; table under the graph, Average (n=4), SD 0.18
# [3] = molecular target: T1, his-tagged recombinant human TIGIT ECD; test: Octet, antibody loaded on the sensor, his-tagged h-PD1 ECD injected first, his-tagged h-TIGIT ECD second
# [4] = molecular target: T5, human PD1 expressed on transfected …; test: cell-based or functional assay
# [5] = molecular target: T2, human TIGIT expressed on cells (stably …); test: TIGIT WCB: whole cell binding, flow cytometry, h-TIGIT Jurkat cells; mean
# Procedure: Affinity to TIGIT was further examined in whole cell binding assay using human TIGIT transfected Jurkat cells. Antibodies were incubated with h-TIGIT transfected Jurkat cells, and binding of antibodies to h-TIGIT was determined using a secondary anti-human-IgG Fc antibody conjugated with AlexaFluor488, which was detected by flow cytometry.
# [6] = molecular target: T2, human TIGIT expressed on cells (stably …); test: flow cytometry (whole cell binding) on h-TIGIT transfected Jurkat cells; table under the graph, Average (n=3), SD 0.35
# [7] = molecular target: T2, human TIGIT expressed on cells (stably …); test: cell-based or functional assay
# [8] = molecular target: T2, human TIGIT expressed on cells (stably …); test: cell-based or functional assay; remark: listed apart in the source
# [9] = molecular target: T2, human TIGIT expressed on cells (stably …); test: flow cytometry on h-TIGIT transfected Jurkat cells (whole cell binding), Alexa Fluor 488 [upper panel]
# [10] = molecular target: T3, recombinant mouse TIGIT; test: ELISA, recombinant mouse-TIGIT
# [11] = molecular target: T6, recombinant cynomolgus TIGIT (cynomolgus monkey); test: ELISA on recombinant cyno-TIGIT
# T6 construct: also called cyno-TIGIT; cyno-TIGIT ECD
# Procedure: (§1) FIGS. 8A-8C depict cross-binding activity of 2A3-Fc to human-, cyno- and mouse-TIGIT determined by ELISA assays. […] Reference Ab 2 is an anti-h-TIGIT reference antibody. Both 2A3-Fc and Reference Ab 2 bind to h-TIGIT with similar affinity. […] Both 2A3-Fc and Reference Ab 2 bind to cyno-TIGIT with similar affinity. […] Y axis represents OD450, X axis represents antibody concentrations in μg/ml.
# (§2) Cross-species binding activity of 2A3-Fc to human, cynomolgus and mouse TIGIT was determined by ELISA assays, results of which are shown in FIGS. 8A-8C. 2A3-Fc bound to human, cynomolgus monkey but not mouse TIGIT.
# [12] = molecular target: T4, recombinant human TIGIT extracellular …; test: ELISA on recombinant human TIGIT ECD
# Procedure: as §1, §2
binder,measurement,setting,value
B1,EC50,[1],600 pM
same,EC50,[2],360 pM
same,binding result,[3],no binding (tested: concentrations not printed)
same,"EC50 (Mean, nM), PD1 Blockade Assay",[4],0.73 nM
B2,EC50,[5],750 pM
same,EC50,[6],610 pM
same,"EC50 (Mean, nM), PD1 + TIGIT Combination Blockade Assay (double blockade)",[7],1.23 nM
same,"EC50 (Mean, nM), TIGIT Blockade Assay",[7],8.7 nM
B3,"EC50 (read off the curve) of the NFAT luciferase reporter activity, TIGIT blockade assay [lower panel]",[8],~1000 pM
same,EC50 (read off the curve),[9],~500 pM
same,binding result,[10],no binding
same,EC50 (read off the curve),[11],~0.1 µg/mL
same,EC50 (read off the curve),[12],~0.1 µg/mL

# Source: patent publication US20230060388A1 (SHANGHAI HENLIUS BIOTECH, published 2023)
